Measured values reported in article PMC6134688, “Identification of a novel site of interaction between ataxin-3 and the amyloid aggregation inhibitor polyglutamine binding peptide 1” (European Journal of Mass Spectrometry (Chichester, England), 2017).
Where no end group is shown, it is not given here.

T1: MBP-183-221, maltose binding protein linked to residues 183-221 of ataxin-3 (UniProt P54252 183-221)
T1 construct: printed mass 49,207.6 Da; MBP drawn from PDB 1LLS; not shown: MBP, N-terminal, kept
T1 chain (looked up): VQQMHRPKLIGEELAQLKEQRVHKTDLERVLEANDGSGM

B1: JD+, the Josephin domain plus residues 183-221 (ataxin-3 residues 1-221) (domain or fragment, UniProt P54252 1-221, looked up)
chain: MESIFHEKQEGSLCAQHCLNNLLQGEYFSPVELSSIAHQLDEEERMRMAEGGVTSEDYRTFLQQPSGNMDDSGFFSIQVISNALKVWGLELILFNSPEYQRLRIDPINERSFICNYKEHWFTVRKLGKQWFNLNSLLTGPELISDTYLALFLAQLQQEGYSIFVVKGDLPDCEADQLLQMIRVQQMHRPKLIGEELAQLKEQRVHKTDLERVLEANDGSGM
notes: ataxin-3 residues 1-221, made by a stop codon in the gene encoding ataxin-3 14Q; printed mass 27,704.4 Da; also called ataxin-3 1-221
B2: polyQ binding peptide 1 (peptide)
peptide: Ac-SNWKWWPGIFD
notes: printed mass 1477.6 Da; also called QBP1; source: synthetic peptide, bought: Bio-Synthesis Inc

What was measured:
[1] = target: the molecule itself; experiment: native MS; nanoESI-MS; 10 μM protein and 50 μM QBP1 (five-fold molar excess) in 250 mM ammonium hydrogen carbonate, 1 mM dithiothreitol, pH 7.8
ataxin-3 14Q [2] = target: ataxin-3 14Q (UniProt P54252); experiment: native MS; nanoESI-MS; 16-fold excess of QBP1 over ataxin-3 14Q (Supplementary Figure 1)
ataxin-3 14Q [3] = target: ataxin-3 14Q (UniProt P54252); experiment: native MS; nanoESI-MS; 10 μM protein and 50 μM QBP1 (five-fold molar excess) in 250 mM ammonium hydrogen carbonate, 1 mM dithiothreitol, pH 7.8
ataxin-3 78Q [4] = target: ataxin-3 78Q (UniProt P54252); experiment: as above
ataxin-3 14Q [5] = target: ataxin-3 14Q (UniProt P54252); experiment: 1H T1rho NMR (signal of the peptide); 50 μM QBP1 and 10 μM protein in 250 mM ammonium hydrogen carbonate, 10% (v/v) D2O; 100 ms spin-lock; methyl region 0.45-0.75 ppm integrated
ataxin-3 78Q [6] = target: ataxin-3 78Q (UniProt P54252); experiment: as above
[7] = target: B1; experiment: native MS; nanoESI-MS; 10 μM protein and 50 μM QBP1 (five-fold molar excess) in 250 mM ammonium hydrogen carbonate, 1 mM dithiothreitol, pH 7.8; details: both partners purified
[8] = target: T2, JDU1, the Josephin domain plus the first UIM (ataxin-3 residues 1-241) (UniProt P54252 1-241); experiment: as above; details: both partners purified
T2 construct: ataxin-3 residues 1-241, made by a stop codon in the gene encoding ataxin-3 14Q; printed mass 30,046.7 Da

[9] = target: T1, MBP-183-221, maltose binding protein …; experiment: native MS; nanoESI-MS; equimolar QBP1 (for the TEV-cleaved MBP fusion the ratio is not told); details: both partners purified

Row | Binder | stoichiometry N [1] | stoichiometry N (ataxin-3 14Q [2]) | stoichiometry N (ataxin-3 14Q [3]) | stoichiometry N (ataxin-3 78Q [4]) | loss of QBP1 signal in T1rho NMR (ataxin-3 14Q [5]) [%] | loss of QBP1 signal in T1rho NMR (ataxin-3 78Q [6]) [%] | stoichiometry N [7] | stoichiometry N [8] | stoichiometry N [9]
1 | B1 | 2 | – | – | – | – | – | – | – | –
2 | B2 | – | 1 | 1 | 1 | 22 | 24 | 1 | 1 | 1
